Molecular target: T1, galectin-3 (Homo sapiens (assumed; ), UniProt P17931, biotin (biotinylated galectin-3))
T1 construct: galectin-3
Assay: ELISA; biotinylated galectin-3 (10 µg/mL) captured on NeutrAvidin-coated wells blocked with 3% skim milk; VHH at 800, 400 and 200 nM in solution, 30 min; detected with HRP anti-FLAG antibody; absorbance at 450 nm
Details: both partners purified

T1 sequence (P17931 whole entry): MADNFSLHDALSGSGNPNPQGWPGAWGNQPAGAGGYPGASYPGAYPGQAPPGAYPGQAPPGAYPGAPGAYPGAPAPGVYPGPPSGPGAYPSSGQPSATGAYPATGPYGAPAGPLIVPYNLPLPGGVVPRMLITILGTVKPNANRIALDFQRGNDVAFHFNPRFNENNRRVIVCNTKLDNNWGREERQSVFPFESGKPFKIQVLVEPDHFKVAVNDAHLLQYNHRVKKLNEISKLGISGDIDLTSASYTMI

B1: wild-type VHH (3DWT) (VHH)
VHH: QVQLVESGGGSVQAGGSLRLSCTASGGSEYSYSTFSLGWFRQAPGQEREAVAAIASMGGLTYYADSVKGRFTISRDNAKNTVTLQMNNLKPEDTAIYYCAAVRGYFMRLPSSHNFRYWGQGTQVTVSS
notes: framework 1 of the VHH of PDB 3DWT; CDR1 (13 aa) of the wild type; framework 2 of the VHH of PDB 3DWT; CDR2 (10 aa) of the wild type; framework 3 of the VHH of PDB 3DWT; CDR3 (16 aa) of the wild type; framework 4 of the VHH of PDB 3DWT; also called wild-type 3DWT; source: E. coli BL21(DE3), purified (IMAC, SEC)
**Q.** Does B1 bind?
**A.** Result: no binding (tested: 800 nM, 400 nM, and 200 nM of VHHs)
